The results in this text go back to publication PMC3464233, “Structural Basis of Differential Neutralization of DENV-1 Genotypes by an Antibody that Recognizes a Cryptic Epitope” (PLoS Pathogens, 2012).

Assay [1] deals with DENV1-E111 monoclonal antibody. The assay is described as follows: SPR; Biacore T100; about 500 RU of E111 MAb or scFv amine-coupled to a Series S CM5 chip; two-fold dilution series of DIII variants injected 180 s, dissociation 1,000 s; 25°C; double referencing against WNV E16 MAb/scFv flow cell; 1:1 Langmuir fit. A general note: Surface plasmon resonance follows binding to a sensor surface in real time, without labels.

In assay [2] the target is DENV-1 strain 16007 E protein domain III (residues 293-399) (Dengue virus 1 (strain 16007, genotype 2)).
For assay [3] the target is unchanged. The source holds these as a separate data set.
Assay [4] concerns the target DENV-1 strain TVP-2130 E protein domain III (Dengue virus 1 (strain TVP-2130, genotype 1)).
In assay [5] the target is DENV1-E111 monoclonal antibody. In words: not stated; half-life of binding of 16007 DIII K343I with E111; unpublished results.
Assay [6] addresses DENV-1 strain 3146 SL E protein domain III (Dengue virus 1 (strain 3146 SL, genotype 5)).
Assay [7] has as its target T1, DENV-1 strain Western Pacific-74 E protein domain III (residues 293-399) (Dengue virus 1, strain Nauru/Western …, strain).
T1 construct: Dengue virus 1 strain Western Pacific-74 (genotype 4), envelope (E) protein domain III, residues 293-399; differs from 16007 DIII at 339 (S) and 345 (V); also called West Pac-74 DIII; source: soluble, bacterially expressed
T1 chain: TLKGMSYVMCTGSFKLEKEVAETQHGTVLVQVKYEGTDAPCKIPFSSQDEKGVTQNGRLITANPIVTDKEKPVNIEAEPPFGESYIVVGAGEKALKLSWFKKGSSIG
The assay is described as follows: SPR; Biacore T100; about 500 RU of E111 MAb or scFv amine-coupled to a Series S CM5 chip; two-fold dilution series of DIII variants injected 180 s, dissociation 1,000 s; 25°C; double referencing against WNV E16 MAb/scFv flow cell; 1:1 Langmuir fit. To be noted: both partners purified.

In assay [8] the target is T1, DENV-1 strain Western Pacific-74 E …. The assay is described as follows: cell-based or functional assay.
Assay [9] has the same target. The assay is described as follows: SPR; Biacore T100; about 500 RU of E111 MAb or scFv amine-coupled to a Series S CM5 chip; two-fold dilution series of DIII variants injected 180 s, dissociation 1,000 s; 25°C; double referencing against WNV E16 MAb/scFv flow cell; 1:1 Langmuir fit. To be noted: both partners purified.
Assay [10] concerns the target DENV-1 strain 3146 SL E protein domain III (Dengue virus 1 (strain 3146 SL, genotype 5)). This is another data set of the same source.
In assay [11] the target is DENV-1 strain TVP-5175 E protein domain III (Dengue virus 1 (strain TVP-5175, genotype 3)).
Assay [12] concerns the target DENV-1 West Pac-74 DIII V345A (Dengue virus 1 (strain Western Pacific-74, genotype 4)).
The target of assay [13] is E111 single-chain variable fragment (VL at the N-terminus). The assay is described as follows: SEC; E111 scFv after nickel affinity; two species resolved.
Assay [14] addresses T2, DENV-1 strain 16007 E protein domain III (residues 293-399) (Dengue virus 1, strain 16007 (genotype …, strain)).
T2 construct: Dengue virus 1 strain 16007 (genotype 2), envelope (E) protein domain III, residues 293-399; untagged; also called 16007 DIII; DIII of 16007; source: BL21 bacterial cells (pET21a, autoinduction); inclusion bodies solubilized and oxidatively re-folded
T2 chain: T1 chain with S47T, V53A
The assay is described as follows: SPR; Biacore T100; about 500 RU of E111 MAb or scFv amine-coupled to a Series S CM5 chip; two-fold dilution series of DIII variants injected 180 s, dissociation 1,000 s; 25°C; double referencing against WNV E16 MAb/scFv flow cell; 1:1 Langmuir fit. The note with it: both partners purified.

Changes are numbered by the printed parent chain. A value given as a limit tells only on which side of the number the result lay.

Broadly, the Kd is the equilibrium constant for the complex coming apart. One may read the koff as a measure of how fast the partners let go of each other. As usually defined, the kon is a measure of how fast the partners come together. A low value points to slow association. For “DENV-1 strain 3146 SL E protein domain III (domain or fragment)”, in [1], the Kd worked out at 523 nM, the koff is 0.142 s⁻¹, the kon worked out at 267000 M⁻¹ s⁻¹ and the t1/2 stood at 0.0917 min.

With “DENV-1 16007 DIII A369T (domain or fragment)”, in assay [1], the Kd was determined as 25.3 nM, the koff is 0.00383 s⁻¹, the kon was 151000 M⁻¹ s⁻¹ and the t1/2 turned out to be 3.04 min.

Consider “DENV-1 strain TVP-5175 E protein domain III (domain or fragment)”, for which, in assay [1], the Kd stood at 1980 nM, the koff was determined as 0.312 s⁻¹, the kon was 162000 M⁻¹ s⁻¹ and the t1/2 was 0.0367 min.

Take DENV1-E111 monoclonal antibody: the EC50 of neutralisation of 16007 RVP after incubation with E111 at 37°C (1 to 22 h) or 40°C (to 4.5 h); fold increase in potency at 40°C for 4.5 h in assay [2] came out at 3.5 fold. In assay [3], the PRNT50, plaque reduction neutralisation of DENV-1 16007 (genotype 2) on Vero cells came out at 3.8 ng/mL. The PRNT50, plaque reduction neutralisation of DENV-1 TVP-2130 (genotype 1) on Vero cells in assay [4] is above 25000 ng/mL.

In the case of “DENV-1 16007 DIII K343I (domain or fragment)”, the t1/2 in [5] came to 45 min.

With “DENV-1 16007 DIII K310E/T329E/K361T (domain or fragment)”, in assay [1], the Kd amounted to 39.8 nM, the koff was 0.00457 s⁻¹, the kon came out at 121000 M⁻¹ s⁻¹ and the t1/2 stood at 2.58 min.

In [1], “DENV-1 strain 16007 E protein domain III (residues 293-399) (domain or fragment)” had a Kd of 18 nM, a koff of 0.00356 s⁻¹, a kon of 198000 M⁻¹ s⁻¹ and a t1/2 of 3.23 min.

“DENV-1 16007 DIII L351V (domain or fragment)”: in [1], the Kd is 107 nM, the koff came out at 0.0237 s⁻¹, the kon is 211000 M⁻¹ s⁻¹ and the t1/2 worked out at 0.548 min.

With “DENV-1 16007 DIII T339S (domain or fragment)”, in assay [1], the Kd turned out to be 16.6 nM, the koff amounted to 0.00313 s⁻¹, the kon was 191000 M⁻¹ s⁻¹ and the t1/2 is 3.71 min.

In [1], “DENV-1 16007 DIII A345V (domain or fragment)” showed a Kd of 1140 nM, a koff of 0.131 s⁻¹, a kon of 114000 M⁻¹ s⁻¹ and a t1/2 of 0.0883 min.

As to “DENV-1 16007 DIII D341N (domain or fragment)”, in assay [1], the Kd was 18.9 nM, the koff was 0.00402 s⁻¹, the kon was 213000 M⁻¹ s⁻¹ and the t1/2 turned out to be 2.88 min.

In [1], “DENV-1 16007 DIII V380I (domain or fragment)” yielded a Kd of 19 nM, a koff of 0.00236 s⁻¹, a kon of 124000 M⁻¹ s⁻¹ and a t1/2 of 4.94 min.

B1: DENV1-E111 monoclonal antibody (antibody, V domains shown)
VH: QVQLLQPGAELVKPGASMKLSCKASGYTFTNWWMHWVRLRPGRGLEWIGRIDPNSDVNKYNEKFENRASLTVDKHSSTAYMQLSSLTSEDSAIYYCARWFFPWYFDVWGTGTTVTVSS
VL: NIVLTQSPASLAVSLGQRATISCRASESVDHYGNSFIYWYQQKPGQPPKLLIYLASNLESGVPARFSGSGSETDFTLTIDSVETDDAATYYCQQNNEDPYTFGGGTKLEIK
notes: also called E111 MAb; E111 IgG; source: E111 hybridoma
As for B1, in assay [6], the EC50, plaque reduction neutralisation of DENV-1 3146 SL (genotype 5) is 0.022 µg/mL. In addition, in assay [7], the dissociation constant (Kd) was 415 ± 24 nM. In addition, in assay [8], the “EC50 of neutralisation of West Pac-74 RVP after incubation with E111 at 37°C (1 to 22 h) or 40°C (to 4.5 h); fold reduction at 40°C for 4.5 h” value was 20 fold. In assay [9], this molecule yielded a Kd of 416 nM, a koff of 0.106 s⁻¹, a kon of 256000 M⁻¹ s⁻¹ and a t1/2 of 0.108 min. The molecule also showed a PRNT50, plaque reduction neutralisation of DENV-1 3146 SL (genotype 5) on Vero cells in [10] of 21 ng/mL. For the same molecule, the PRNT50, plaque reduction neutralisation of DENV-1 TVP-5175 (genotype 3) on Vero cells in assay [11] was above 25000 ng/mL. Moreover, the neutralisation of V345A West Pac-74 RVP against wild-type West Pac-74 RVP, Raji-DC-SIGNR cells, fold enhancement in assay [12] worked out at 3.6 fold.

B2: E111 single-chain variable fragment (VL at the N-terminus) (scFv, V domains shown)
VH: B1 VH
VL: B1 VL
notes: E111 VL; as the VL of the light chain of m1; (GGGGS)3 linker; E111 VH; as the VH of the heavy chain of m1; The monomeric species was used for the structure; a second construct with VH first was also made but not used; also called E111 scFv
One may read the stoichiometry N as the number of molecules, sites or subunits per partner or assembly. In [13], B2 gave a stoichiometry N of 2. In assay [9], this molecule displayed a Kd of 1830 nM, a koff of 0.275 s⁻¹, a kon of 151000 M⁻¹ s⁻¹ and a t1/2 of 0.0422 min. In [14], this molecule gave a Kd of 24.6 nM, a koff of 0.00695 s⁻¹, a kon of 288000 M⁻¹ s⁻¹ and a t1/2 of 1.68 min.
